In this assay the target is recombinant human C1q (human) (UniProt P02745). The assay is described as follows: SPR, antibody captured on anti-kappa chip, C1q as analyte; signal relative to rituximab.
Chain of recombinant human C1q (human) (P02745 23-245 limits assumed, chain 1 of 3): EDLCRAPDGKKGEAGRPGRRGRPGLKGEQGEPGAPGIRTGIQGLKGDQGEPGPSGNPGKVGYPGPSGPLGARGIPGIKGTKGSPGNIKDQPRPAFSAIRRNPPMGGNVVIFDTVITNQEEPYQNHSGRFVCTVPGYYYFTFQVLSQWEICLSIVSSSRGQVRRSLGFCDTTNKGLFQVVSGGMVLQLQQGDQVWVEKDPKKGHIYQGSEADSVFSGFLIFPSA
Chain of recombinant human C1q (human) (P02746 28-253 limits assumed, chain 2 of 3, further chain): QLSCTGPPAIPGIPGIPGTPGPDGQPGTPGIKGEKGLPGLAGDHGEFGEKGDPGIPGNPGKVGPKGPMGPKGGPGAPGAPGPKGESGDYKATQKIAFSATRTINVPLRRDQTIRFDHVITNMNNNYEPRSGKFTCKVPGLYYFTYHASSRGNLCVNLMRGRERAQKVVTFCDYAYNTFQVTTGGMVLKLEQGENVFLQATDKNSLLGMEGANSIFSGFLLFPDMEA
Chain of recombinant human C1q (human) (P02747 29-245 limits assumed, chain 3 of 3, further chain): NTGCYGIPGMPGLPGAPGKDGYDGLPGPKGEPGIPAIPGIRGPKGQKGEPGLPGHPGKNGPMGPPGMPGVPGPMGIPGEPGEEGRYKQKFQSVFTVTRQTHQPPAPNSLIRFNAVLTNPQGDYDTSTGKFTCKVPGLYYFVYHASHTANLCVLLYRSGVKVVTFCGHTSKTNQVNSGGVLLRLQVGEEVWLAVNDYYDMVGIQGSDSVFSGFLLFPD

Chain of Lebrikizumab (Construct 1) (antibody; other documents disagree on this pair) (heavy): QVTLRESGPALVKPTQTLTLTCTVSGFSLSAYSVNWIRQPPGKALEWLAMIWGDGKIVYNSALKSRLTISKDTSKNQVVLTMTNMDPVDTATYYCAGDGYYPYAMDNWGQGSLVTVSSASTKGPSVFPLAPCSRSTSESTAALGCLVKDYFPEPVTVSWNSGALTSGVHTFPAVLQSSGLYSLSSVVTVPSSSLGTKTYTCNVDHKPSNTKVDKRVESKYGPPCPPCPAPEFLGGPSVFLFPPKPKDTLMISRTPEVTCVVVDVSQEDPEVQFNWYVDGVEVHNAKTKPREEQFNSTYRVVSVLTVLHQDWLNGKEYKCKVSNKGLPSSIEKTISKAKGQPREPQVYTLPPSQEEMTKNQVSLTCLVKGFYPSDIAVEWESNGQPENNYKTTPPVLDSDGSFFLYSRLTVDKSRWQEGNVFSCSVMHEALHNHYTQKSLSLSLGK
Chain of Lebrikizumab (Construct 1) (antibody; other documents disagree on this pair) (light): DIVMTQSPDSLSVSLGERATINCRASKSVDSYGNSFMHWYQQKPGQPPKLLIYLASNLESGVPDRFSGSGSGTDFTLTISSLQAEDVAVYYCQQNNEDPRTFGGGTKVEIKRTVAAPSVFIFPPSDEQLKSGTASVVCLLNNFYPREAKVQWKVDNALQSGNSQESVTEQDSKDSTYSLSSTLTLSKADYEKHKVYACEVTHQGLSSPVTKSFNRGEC

For “Lebrikizumab (Construct 1) (antibody; other documents disagree on this pair)”, the C1q (Signal Relative to Rituximab) came to 39.6%.

These data come from patent US20250129150A1.
